Data reported in paper PMC3902912.

Target: T1, CTCF11ZF (UniProt Q61164 266-579)
T1 sequence: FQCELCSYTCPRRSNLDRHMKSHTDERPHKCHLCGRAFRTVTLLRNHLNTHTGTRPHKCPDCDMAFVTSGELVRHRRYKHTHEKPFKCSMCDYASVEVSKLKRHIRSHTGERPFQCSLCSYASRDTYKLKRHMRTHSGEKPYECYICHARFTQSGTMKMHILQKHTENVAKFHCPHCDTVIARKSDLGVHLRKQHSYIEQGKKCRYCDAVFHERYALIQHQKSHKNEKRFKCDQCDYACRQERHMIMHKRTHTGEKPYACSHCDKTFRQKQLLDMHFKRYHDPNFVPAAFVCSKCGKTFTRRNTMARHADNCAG
Assay: FP competition

B1: LowOc1_Scrambled (dsDNA)
DNA 1: CCCTGGTCGGTGTGGCTGGCGACACCTCGCACTCTG
DNA 2: CAGAGTGCGAGGTGTCGCCAGCCACACCGACCAGGG
B1: no binding.
